The numbers were not newly measured in publication PMC8654464, which cites them from elsewhere.

For the data set, the target named is SARS-CoV-2 spike protein RBD (Severe acute respiratory syndrome coronavirus 2) (UniProt P0DTC2).

What is called Kd is a measure of binding affinity in units of concentration. Consider regdanvimab, for which the Kd is 0.065 nM.
